Tests used:
mCherry-BARD1 = target: T1, mCherry-BARD1 (UniProt Q99728 1-777); experiment: fluorescence cross-correlation spectroscopy (FCCS); GFP- and mCherry-tagged proteins co-expressed in live HeLa cells; focal volume in the nucleoplasm (MSH2-MSH6 also in the cytoplasm); room temperature; cross-correlation/autocorrelation ratio; settings: partners not purified
T1 construct: also called BRCA1 Associated RING Domain 1; source: HeLa, transfected, in live cells and in lysate
T1 sequence (looked up): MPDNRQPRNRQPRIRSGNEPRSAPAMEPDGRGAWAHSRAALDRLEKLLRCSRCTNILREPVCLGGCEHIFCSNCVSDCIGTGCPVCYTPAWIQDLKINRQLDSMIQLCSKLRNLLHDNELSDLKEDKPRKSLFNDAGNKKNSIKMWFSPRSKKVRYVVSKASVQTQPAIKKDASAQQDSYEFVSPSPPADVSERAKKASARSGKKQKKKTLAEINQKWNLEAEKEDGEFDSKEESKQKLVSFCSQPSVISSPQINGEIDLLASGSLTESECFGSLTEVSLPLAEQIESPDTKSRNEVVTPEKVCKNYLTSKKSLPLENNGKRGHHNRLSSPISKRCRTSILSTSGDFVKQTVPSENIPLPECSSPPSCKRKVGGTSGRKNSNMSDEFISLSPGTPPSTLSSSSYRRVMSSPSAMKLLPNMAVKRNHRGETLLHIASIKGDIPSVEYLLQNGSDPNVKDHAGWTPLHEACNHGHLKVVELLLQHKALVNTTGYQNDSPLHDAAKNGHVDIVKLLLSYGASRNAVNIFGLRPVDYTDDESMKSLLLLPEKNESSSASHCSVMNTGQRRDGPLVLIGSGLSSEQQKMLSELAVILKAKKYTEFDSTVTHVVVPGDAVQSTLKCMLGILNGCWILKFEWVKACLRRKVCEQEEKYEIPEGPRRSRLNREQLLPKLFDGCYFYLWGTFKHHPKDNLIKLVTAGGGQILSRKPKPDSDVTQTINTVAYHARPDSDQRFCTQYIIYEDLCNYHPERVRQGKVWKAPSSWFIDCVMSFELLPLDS

mCherry-RBBP8 = target: T2, mCherry-RBBP8 (UniProt Q99708 1-897); experiment: fluorescence cross-correlation spectroscopy (FCCS); lysate of co-transfected HeLa cells; 20 mM Tris-HCl pH 7.5, 140 mM KCl, 1.5 mM MgCl2, 1 mM DTT, 0.5% NP-40; lysed at room temperature; cross-correlation/autocorrelation ratio; settings: partners not purified
T2 construct: also called mCherry-RBBP8/CtIP; CtIP; source: HeLa, transfected, in live cells and in lysate
T2 sequence (Q99708 whole entry): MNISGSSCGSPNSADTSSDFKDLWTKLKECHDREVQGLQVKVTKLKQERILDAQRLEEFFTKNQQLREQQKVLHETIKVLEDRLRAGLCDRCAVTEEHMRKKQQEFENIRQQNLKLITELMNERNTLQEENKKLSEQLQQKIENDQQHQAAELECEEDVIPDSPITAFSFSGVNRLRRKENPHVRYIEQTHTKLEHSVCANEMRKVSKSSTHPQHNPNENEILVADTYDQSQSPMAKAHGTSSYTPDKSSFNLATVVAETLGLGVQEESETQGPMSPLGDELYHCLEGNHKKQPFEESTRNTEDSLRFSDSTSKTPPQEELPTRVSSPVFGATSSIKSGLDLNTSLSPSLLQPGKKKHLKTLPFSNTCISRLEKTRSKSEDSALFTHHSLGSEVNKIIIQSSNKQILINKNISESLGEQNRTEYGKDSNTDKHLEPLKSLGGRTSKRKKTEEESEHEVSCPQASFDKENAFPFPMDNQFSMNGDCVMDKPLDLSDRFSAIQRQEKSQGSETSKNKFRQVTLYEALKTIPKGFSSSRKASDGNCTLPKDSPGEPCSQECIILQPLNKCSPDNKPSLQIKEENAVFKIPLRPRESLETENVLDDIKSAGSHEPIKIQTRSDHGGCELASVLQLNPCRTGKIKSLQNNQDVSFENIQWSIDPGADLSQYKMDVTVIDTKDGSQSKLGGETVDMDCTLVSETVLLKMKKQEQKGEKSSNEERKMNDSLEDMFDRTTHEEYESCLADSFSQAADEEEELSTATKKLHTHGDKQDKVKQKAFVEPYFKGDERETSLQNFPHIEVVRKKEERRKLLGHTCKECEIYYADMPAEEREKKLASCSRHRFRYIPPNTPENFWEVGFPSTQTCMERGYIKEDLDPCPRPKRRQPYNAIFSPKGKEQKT

B1: GFP-BRCA1-C44F (natural protein, UniProt P38398 1-1863, looked up)
chain: MDLSALRVEEVQNVINAMQKILECPICLELIKEPVSTKCDHIFFKFCMLKLLNQKKGPSQCPLCKNDITKRSLQESTRFSQLVEELLKIICAFQLDTGLEYANSYNFAKKENNSPEHLKDEVSIIQSMGYRNRAKRLLQSEPENPSLQETSLSVQLSNLGTVRTLRTKQRIQPQKTSVYIELGSDSSEDTVNKATYCSVGDQELLQITPQGTRDEISLDSAKKAACEFSETDVTNTEHHQPSNNDLNTTEKRAAERHPEKYQGSSVSNLHVEPCGTNTHASSLQHENSSLLLTKDRMNVEKAEFCNKSKQPGLARSQHNRWAGSKETCNDRRTPSTEKKVDLNADPLCERKEWNKQKLPCSENPRDTEDVPWITLNSSIQKVNEWFSRSDELLGSDDSHDGESESNAKVADVLDVLNEVDEYSGSSEKIDLLASDPHEALICKSERVHSKSVESNIEDKIFGKTYRKKASLPNLSHVTENLIIGAFVTEPQIIQERPLTNKLKRKRRPTSGLHPEDFIKKADLAVQKTPEMINQGTNQTEQNGQVMNITNSGHENKTKGDSIQNEKNPNPIESLEKESAFKTKAEPISSSISNMELELNIHNSKAPKKNRLRRKSSTRHIHALELVVSRNLSPPNCTELQIDSCSSSEEIKKKKYNQMPVRHSRNLQLMEGKEPATGAKKSNKPNEQTSKRHDSDTFPELKLTNAPGSFTKCSNTSELKEFVNPSLPREEKEEKLETVKVSNNAEDPKDLMLSGERVLQTERSVESSSISLVPGTDYGTQESISLLEVSTLGKAKTEPNKCVSQCAAFENPKGLIHGCSKDNRNDTEGFKYPLGHEVNHSRETSIEMEESELDAQYLQNTFKVSKRQSFAPFSNPGNAEEECATFSAHSGSLKKQSPKVTFECEQKEENQGKNESNIKPVQTVNITAGFPVVGQKDKPVDNAKCSIKGGSRFCLSSQFRGNETGLITPNKHGLLQNPYRIPPLFPIKSFVKTKCKKNLLEENFEEHSMSPEREMGNENIPSTVSTISRNNIRENVFKEASSSNINEVGSSTNEVGSSINEIGSSDENIQAELGRNRGPKLNAMLRLGVLQPEVYKQSLPGSNCKHPEIKKQEYEEVVQTVNTDFSPYLISDNLEQPMGSSHASQVCSETPDDLLDDGEIKEDTSFAENDIKESSAVFSKSVQKGELSRSPSPFTHTHLAQGYRRGAKKLESSEENLSSEDEELPCFQHLLFGKVNNIPSQSTRHSTVATECLSKNTEENLLSLKNSLNDCSNQVILAKASQEHHLSEETKCSASLFSSQCSELEDLTANTNTQDPFLIGSSKQMRHQSESQGVGLSDKELVSDDEERGTGLEENNQEEQSMDSNLGEAASGCESETSVSEDCSGLSSQSDILTTQQRDTMQHNLIKLQQEMAELEAVLEQHGSQPSNSYPSIISDSSALEDLRNPEQSTSEKAVLTSQKSSEYPISQNPEGLSADKFEVSADSSTSKNKEPGVERSSPSKCPSLDDRWYMHSCSGSLQNRNYPSQEELIKVVDVEEQQLEESGPHDLTETSYLPRQDLEGTPYLESGISLFSDDPESDPSEDRAPESARVGNIPSSTSALKVPQLKVAESAQSPAAAHTTDTAGYNAMEESVSREKPELTASTERVNKRMSMVVSGLTPEEFMLVYKFARKHHITLTNLITEETTHVVMKTDAEFVCERTLKYFLGIAGGKWVVSYFWVTQSIKERKMLNEHDFEVRGDVVNGRNHQGPKRARESQDRKIFRGLEICCYGPFTNMPTDQLEWMVQLCGASVVKELSSFTLGTGVHPIVVVQPDAWTEDNGFHAIGQMCEAPVVTREWVLDSVALYQCQELDTYLIPQIPHSHY
notes: also called p.Cys44Phe; source: HeLa, transfected, in live cells
mCherry-BARD1
  reduction in binding relative to wild type: ~50%

B2: GFP-BRCT (isolated BRCA1 BRCT domain, wild-type) (domain or fragment, UniProt P38398 1650-1863, looked up)
chain: MSMVVSGLTPEEFMLVYKFARKHHITLTNLITEETTHVVMKTDAEFVCERTLKYFLGIAGGKWVVSYFWVTQSIKERKMLNEHDFEVRGDVVNGRNHQGPKRARESQDRKIFRGLEICCYGPFTNMPTDQLEWMVQLCGASVVKELSSFTLGTGVHPIVVVQPDAWTEDNGFHAIGQMCEAPVVTREWVLDSVALYQCQELDTYLIPQIPHSHY
notes: BRCA1 amino acids 1650-1864 cloned into pEGFP-C1; the printed limit 1864 may count the stop codon; also called EGFP-tagged BRCT trimmed domain; source: HeLa, transfected, in lysate
mCherry-RBBP8
  cross-correlation: 17%
